Here are results for two molecules from article doi:10.1101/2024.09.21.614250 (bioRxiv, 2024).

Assay [1] deals with T1, Shp2^tSH2 (aa5-218), C-terminally SNAP-tag-fused, SC505-labeled (human, UniProt Q06124 5-218, Snap-Cell505 star (SC505) label on the SNAP-tag).
T1 sequence: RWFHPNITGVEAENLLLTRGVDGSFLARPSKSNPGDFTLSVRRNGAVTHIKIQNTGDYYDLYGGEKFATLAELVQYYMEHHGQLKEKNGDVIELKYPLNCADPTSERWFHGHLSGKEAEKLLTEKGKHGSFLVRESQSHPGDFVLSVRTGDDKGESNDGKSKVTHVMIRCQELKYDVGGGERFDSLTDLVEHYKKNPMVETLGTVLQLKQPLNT
Kind of assay: FRET or BRET. Background: BRET reads energy transfer from a luciferase to a nearby fluorophore.

For assay [2], the target named is T2, Shp1^tSH2 (aa4-215), C-terminally SNAP-tag-fused, SC505-labeled (human, UniProt P29350 4-215, Snap-Cell505 star (SC505) label on the SNAP-tag).
T2 sequence: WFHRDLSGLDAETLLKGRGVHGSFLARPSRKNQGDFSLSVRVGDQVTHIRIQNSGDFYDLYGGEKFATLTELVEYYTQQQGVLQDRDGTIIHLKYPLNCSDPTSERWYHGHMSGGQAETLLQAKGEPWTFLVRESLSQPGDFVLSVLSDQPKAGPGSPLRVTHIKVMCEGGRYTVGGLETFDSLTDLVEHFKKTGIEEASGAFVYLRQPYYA
Kind of assay: FRET or BRET.

B1: His-tagged huPD1 ICD WT, phosphorylated by Lck (domain or fragment)
chain: CSRAARGTIGARRTGQPLKEDPSAVPVFSVDYGELDFQWREKTPEPPVPCVPEQTEYATIVFPSGMGTSSPARRGSADGPRSAQPLRPEDGHCSWPL
modifications: phosphorylated by Lck on the LUV after ATP addition (sites not stated for this assay)
Turning to B1, the affinity in assay [1], expressed as Kd, was 76 nM. Besides, the binding result in assay [2] is given as “binds”.

B2: His-tagged moPD1 ICD WT, phosphorylated by Lck (domain or fragment)
chain: CSTSMSEARGAGSKDDTLKEEPSAAPVPSVAYEELDFQGREKTPELPTACVHTEYATIVFTEGLGASAMGRRGSADGLQGPRPPRHEDGHCSWPL
modifications: phosphorylated by Lck on the LUV after ATP addition (sites not stated for this assay)
B2 came in with a Kd in assay [1] of 220 nM. For the same molecule, in assay [2], the binding result is given as “binds”.

By Kd is commonly meant the equilibrium constant for the complex coming apart. The low end stands for higher affinity, the high end for lower affinity.
